Data taken from patent US20240209044.

T1: ZAP, zeta activating peptide, the PKCzeta uORF-encoded peptide
T1 chain: MGPREARLQVHQLQTAGP

T2: ZIP, zeta inhibitory peptide, the pseudo-substrate peptide of the PKCzeta regulatory domain
T2 chain: SIYRRGARRWRKL


Assays:
[1] = target: T1, ZAP, zeta activating peptide, the …
[2] = target: T2, ZIP, zeta inhibitory peptide, the …

| Protein | phosphorylation of MBP by PKC isoforms (32P-γATP in vitro kinase assay) [1] | PKCzeta phosphorylation of MBP (32P-γATP in vitro kinase assay) [1] | kinase activity (phosphorylation of MBP, 32P-γ-ATP in vitro kinase assay, dose series of peptide) [1] | kinase activity (phosphorylation of MBP, 32P-γ-ATP in vitro kinase assay, dose series of peptide) [2] |
| --- | --- | --- | --- | --- |
| PKCtheta, HA-tagged, immunoprecipitated from HEK293T lysate (protein) MSPFLRIGLSNFDCGSCQSCQGEAVNPYCAVLVKEYVESENGQMYIQKKPTMYPPWDSTFDAHINKGRVMQIIVKGKNVDLISETTVELYSLAERCRKNNGKTEIWLELKPQGRMLMNARYFLEMSDTKDMNEFETEGFFALHQRRGAIKQAKVHHVKCHEFTATFFPQPTFCSVCHEFVWGLNKQGYQCRQCNAAIHKKCIDKVIAKCTGSAINSRETMFHKERFKIDMPHRFKVYNYKSPTFCEHCGTLLWGLARQGLKCDACGMNVHHRCQTKVANLCGINQKLMAEALAMIESTQQARCLRDTEQIFREGPVEIGLPCSIKNEARPPCLPTPGKREPQGISWESPLDEVDKMCHLPEPELNKERPSLQIKLKIEDFILHKMLGKGSFGKVFLAEFKKTNQFFAIKALKKDVVLMDDDVECTMVEKRVLSLAWEHPFLTHMFCTFQTKENLFFVMEYLNGGDLMYHIQSCHKFDLSRATFYAAEIILGLQFLHSKGIVYRDLKLDNILLDKDGHIKIADFGMCKENMLGDAKTNTFCGTPDYIAPEILLGQKYNHSVDWWSFGVLLYEMLIGQSPFHGQDEEELFHSIRMDNPFYPRWLEKEAKDLLVKLFVREPEKRLGVRGDIRQHPLFREINWEELERKEIDPPFRPKVKSPFDCSNFDKEFLNEKPRLSFADRALINSMDQNMFRNFSFMNPGMERLIS | the peptide had no effect on the phosphorylation of MBP by the PKC isoforms PKCeta (PKCη), PKCtheta (PKCθ), PKCgamma (PKCγ), and PKCalpha (PKCα) |  |  |  |
| PKCzeta, HA-tagged, immunoprecipitated from HEK293T lysate (protein) MPSRTGPKMEGSGGRVRLKAHYGGDIFITSVDAATTFEELCEEVRDMCRLHQQHPLTLKWVDSEGDPCTVSSQMELEEAFRLARQCRDEGLIIHVFPSTPEQPGLPCPGEDKSIYRRGARRWRKLYRANGHLFQAKRFNRRAYCGQCSERIWGLARQGYRCINCKLLVHKRCHGLVPLTCRKHMDSVMPSQEPPVDDKNEDADLPSEETDGIAYISSSRKHDSIKDDSEDLKPVIDGMDGIKISQGLGLQDFDLIRVIGRGSYAKVLLVRLKKNDQIYAMKVVKKELVHDDEDIDWVQTEKHVFEQASSNPFLVGLHSCFQTTSRLFLVIEYVNGGDLMFHMQRQRKLPEEHARFYAAEICIALNFLHERGIIYRDLKLDNVLLDADGHIKLTDYGMCKEGLGPGDTTSTFCGTPNYIAPEILRGEEYGFSVDWWALGVLMFEMMAGRSPFDIITDNPDMNTEDYLFQVILEKPIRIPRFLSVKASHVLKGFLNKDPKERLGCRPQTGFSDIKSHAFFRSIDWDLLEKKQALPPFQPQITDDYGLDNFDTQFTSEPVQLTPDDEDAIKRIDQSEFEGFEYINPLLLSTEESV | enhanced the phosphorylation of PKC isoforms of the novel PKC sub-family of PKCzeta, PKCdelta and PKCepsilon | did not inhibit PKCzeta phosphorylation of MBP, rather significantly increased the phosphorylation on MBP | the ZAP peptide activates the kinase activity of both PKCzeta and PKMzeta | the known PS ZIP peptide inhibits their activity |
| PKCepsilon, HA-tagged, immunoprecipitated from HEK293T lysate (protein) MVVFNGLLKIKICEAVSLKPTAWSLRHAVGPRPQTFLLDPYIALNVDDSRIGQTATKQKTNSPAWHDEFVTDVCNGRKIELAVFHDAPIGYDDFVANCTIQFEELLQNGSRHFEDWIDLEPEGRVYVIIDLSGSSGEAPKDNEERVFRERMRPRKRQGAVRRRVHQVNGHKFMATYLRQPTYCSHCRDFIWGVIGKQGYQCQVCTCVVHKRCHELIITKCAGLKKQETPDQVGSQRFSVNMPHKFGIHNYKVPTFCDHCGSLLWGLLRQGLQCKVCKMNVHRRCETNVAPNCGVDARGIAKVLADLGVTPDKITNSGQRRKKLIAGAESPQPASGSSPSEEDRSKSAPTSPCDQEIKELENNIRKALSFDNRGEEHRAASSPDGQLMSPGENGEVRQGQAKRLGLDEFNFIKVLGKGSFGKVMLAELKGKDEVYAVKVLKKDVILQDDDVDCTMTEKRILALARKHPYLTQLYCCFQTKDRLFFVMEYVNGGDLMFQIQRSRKFDEPRSRFYAAEVTSALMFLHQHGVIYRDLKLDNILLDAEGHCKLADFGMCKEGILNGVTTTTFCGTPDYIAPEILQELEYGPSVDWWALGVLMYEMMAGQPPFEADNEDDLFESILHDDVLYPVWLSKEAVSILKAFMTKNPHKRLGCVASQNGEDAIKQHPFFKEIDWVLLEQKKIKPPFKPRIKTKRDVNNFDQDFTREEPVLTLVDEAIVKQINQEEFKGFSYFGEDLMP | enhanced the phosphorylation of PKC isoforms of the novel PKC sub-family of PKCzeta, PKCdelta and PKCepsilon |  |  |  |
